Results as given in PMC2748841 (Nature, 2009).

B1: cellular Prion Protein (PrP^C), full-length mouse PrP expressed on COS-7 cells (receptor)
chain: not shown
B2: Amyloid precursor-like protein 1 (APLP1) (natural protein)
chain: SLAGGSPGAAEAPGSAQVAGLCGRLTLHRDLRTGRWEPDPQRSRRCLRDPQRVLEYCRQMYPELQIARVEQATQAIPMERWCGGSRSGSCAHPHHQVVPFRCLPGEFVSEALLVPEGCRFLHQERMDQCESSTRRHQEAQEACSSQGLILHGSGMLLPCGSDRFRGVEYVCCPPPGTPDPSGTAVGDPSTRSWPPGSRVEGAEDEEEEESFPQPVDDYFVEPPQAEEEEETVPPPSSHTLAVVGKVTPTPRPTDGVDIYFGMPGEISEHEGFLRAKMDLEERRMRQINEVMREWAMADNQSKNLPKADRQALNEHFQSILQTLEEQVSGERQRLVETHATRVIALINDQRRAALEGFLAALQADPPQAERVLLALRRYLRAEQKEQRHTLRHYQHVAAVDPEKAQQMRFQVHTHLQVIEERVNQSLGLLDQNPHLAQELRPQIQELLHSEHLGPSELEAPAPGGSSEDKGGLQPPDSKDDTPMTLPKGSTEQDAASPEKEKMNPLEQYERKVNASVPRGFPFHSSEIQRDELAPAGTGVSREAVSGLLIMGAGGGSLIVLSMLLLRRKKPYGAISHGVVEVDPMLTLEEQQLRELQRHGYENPTYRFLEERP
B3: Transmembrane protein 30B (TMEM30B) (natural protein)
chain: MTWSATARGAHQPDNTAFTQQRLPAWQPLLSASIALPLFFCAGLAFIGLGLGLYYSSNGIKELEYDYTGDPGTGNCSVCAAAGQGRALPPPCSCAWYFSLPELFQGPVYLYYELTNFYQNNRRYGVSRDDAQLSGLPSALRHPVNECAPYQRSAAGLPIAPCGAIANSLFNDSFSLWHQRQPGGPYVEVPLDRSGIAWWTDYHVKFRNPPLVNGSLALAFQGTAPPPNWRRPVYELSPDPNNTGFINQDFVVWMRTAALPTFRKLYARIRQGNYSAGLPRGAYRVNITYNYPVRAFGGHKLLIFSSISWMGGKNPFLGIAYLVVGSLCILTGFVMLVVYIRYQDQDDDDEE

Biological target: biotin-Aβ42-oligomer (UniProt P05067)
Assay: binding of biotinylated ligand to transfected cells

Binder	Kd [nM]
B1	92
B2	660
B3	720
